According to patent US20260234232A1 (QUAERITE BIOPHARM RESEARCH BEIJING, published 2026):
Where a chain is given by its changes, count along the chain named. Read-outs that look alike come from different tables or passages of the source. Each block holds one binder with its values, some of them ahead of it.

Tests used:
human VEGFA165 [1] = molecular target: T1, human VEGFA165 (human, UniProt P15692-4 27-191); assay: ELISA, coated human VEGFA165, anti-His detection
T1 construct: Bought protein from two suppliers, treated as one molecule; the supplier is named under assay; also called antigen VEGFA
T1 sequence (P15692 other isoform, or with tags, fused parts or gaps limits assumed): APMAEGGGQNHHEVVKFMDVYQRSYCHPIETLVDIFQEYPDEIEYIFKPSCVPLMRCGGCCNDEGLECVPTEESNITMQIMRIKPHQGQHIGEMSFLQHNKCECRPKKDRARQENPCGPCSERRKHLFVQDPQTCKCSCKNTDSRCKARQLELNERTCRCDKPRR
Description: (§1) Antigen human VEGFA165 (label-free, purchased from Sino Biological, Cat. No.: HPLC-10008-HNAH, hereinafter referred to as VEGFA) was diluted with ELISA coating buffer to a final concentration of 0.3 μg/mL and added to a microplate at 100 μL/well for coating at 4° C. overnight. […] The solution used for antibody dilution was PBS containing 0.1% Tween-20 (pH 7.4), i.e., PBST. After being incubated at 37° C. for 1 h, the microplate was washed 3 times with PBST, and a dilution of His-Tag murine monoclonal antibody (purchased from Proteintech, Cat. No.: 66005-1-Ig) was added. The plate was further incubated at 37° C. for 1 h and washed again. Subsequently, a dilution of HRP-labeled goat anti-mouse IgG antibody (HRP-conjugated Affinipure Goat Anti-Mouse IgG (H+L), purchased from Proteintech, Cat. No.: SA00001-1) was added, and the plate was incubated at room temperature for 45 min. After the plate was washed, 100 μL of TMB (purchased from Tiangen Biotech, Cat. No.: PA107-01) was added to each well for color development at 37° C. for 15 min, followed by the addition of 50 μL of stopping solution. The absorbance at 450 nm (OD450) was measured using a microplate reader.

human VEGFA165 [2] = molecular target: T1, human VEGFA165; assay: competitive ELISA, coated VEGFA, competitor VEGFR2-ECD-Fc 1 nM
human VEGFA165 [3] = molecular target: T1, human VEGFA165; assay: ELISA, coated human VEGFA165, anti-His detection; remark: listed apart in the source
Description: as §1
The purified bivalent humanized nanobodies were evaluated for their VEGFA binding activity, and the experimental procedure was the same as that described in “2.

human VEGFA165 [4] = molecular target: T1, human VEGFA165; assay: competitive ELISA, coated VEGFA, competitor VEGFR2-ECD-Fc 1 nM; remark: listed apart in the source
human VEGFA165 [5] = molecular target: T1, human VEGFA165; assay: ELISA, coated human VEGFA165, anti-His detection; remark: listed apart in the source
Description: as §1

human VEGFA165 [6] = molecular target: T1, human VEGFA165; assay: SPR Biacore 8K, VEGFA165 on CM5, nanobody analyte, 1:1 fit
Description: Using the Biacore 8K instrument (Cytiva), the antigen VEGFA165 (label-free, purchased from Sino Biological, Cat. No.: HPLC-10008-HNAH) as the ligand was coupled onto a CM5 chip through amino-coupling reagents (EDC and NHS), with the coupling level being about 400 RU. The mobile phase buffer was HBS-EP (0.01 M HEPES pH 7.4, 0.15 M NaCl, 3 mM EDTA, 0.005% v/v Tween 20) during the experiment. […] In the kinetic analysis, the binding time between the antigen and the antibody was 240 s, the dissociation time was 1500 s, and the flow rate was 30 μL/min. In a multi-cycle mode, the chip was regenerated with 100 mM hydrochloric acid.

human VEGFA165 [7] = molecular target: T1, human VEGFA165; assay: ELISA, coated human VEGFA165, anti-His detection; remark: listed apart in the source
Description: as §1
The experimental procedure was the same as that described in “2.

B2: 2V1-DP-3GS (VHH)
chain: EVQLVESGGGLVQPGGSLRLSCAVSGRTFSSYTMGWFRQAPGKEREFVVAISKGGYKYDSVSLEARFTISRDNSKNTVYLQMNSLRPEDTAVYYCAATRAYGSSRLRLADTYEYWGQGTLVTVSSGGSEVQLVESGGGLVQPGGSLRLSCAVSGRTFSSYTMGWFRQAPGKEREFVVAISKGGYKYDSVSLEARFTISRDNSKNTVYLQMNSLRPEDTAVYYCAATRAYGSSRLRLADTYEYWGQGTLVTVSS
notes: Tandem bivalent humanized nanobody
EC50 (human VEGFA165 [3]): 0.27 nM

B3: 2V30-2H-2m-3GS (VHH)
chain: B2 chain with V24A, S60A, D110K, V152A, S188A, D238K
notes: as for B2
EC50 (human VEGFA165 [3]): 0.94 nM

B6: 2V15-4m-3GS (VHH)
chain: B2 chain with V24A, S30A, S74A, A97G, D110E, V152A, S158A, S202A, A225G, D238E
notes: as for B2
EC50 (human VEGFA165 [3]): 0.24 nM

B7: V1-V15 (bispecific antibody)
chain: QLQLVESGGGSVQPGGSLRLSCEVSGRTFSSYTMGWFRQAPGKEREFVVAISKGGYKYDSVSLEARFTISKDNTKNTVYLQMNSLKPEDTAVYYCAATRAYGSSRLRLADTYEYWGQGTQVTVSSGGGGSGGGSQLQLVESGGGSVQPGGSLRLSCEVSGRTFASYTMGWFRQAPGKEREFVVAISKGGYKYDSVSLEARFTISKDNTKNTVYLQMNSLKPEDTAVYYCAGTRAYGSSRLRLAETYEYWGQGTQVTVSS
IC50 (human VEGFA165 [4]): 3.8 nM | Maximum inhibition rate (%) (human VEGFA165 [4]): 87.8% | EC50 (human VEGFA165 [5]): 0.29 nM

B11: V1-V40 (bispecific antibody)
chain: B7 chain with A164T, D193N, S194A, G231A, E244K
IC50 (human VEGFA165 [4]): 3.74 nM | Maximum inhibition rate (%) (human VEGFA165 [4]): 88.5% | EC50 (human VEGFA165 [5]): 0.42 nM

B13: V29 (VHH)
VHH: QLQLVESGGGSVQPGGSLRLSCEVSGRTFSSYTMGWFRQAPGKEREFVVAISKGGYKYDSVSLEARFTISKDNTKNTVYLQMNSLKPEDTAVYYCAGTRAYGSSRLRLANTYEYWGQGTQVTVSS
notes: Monovalent nanobody; tag not described here
Kd (human VEGFA165 [6]): 0.653 nM | koff (human VEGFA165 [6]): 0.000154 s⁻¹ | kon (human VEGFA165 [6]): 236000 M⁻¹ s⁻¹

B15: V33 (VHH)
VHH: B13 VHH with G97A, N110K
notes: as for B13
Kd (human VEGFA165 [6]): 0.719 nM | koff (human VEGFA165 [6]): 0.000233 s⁻¹ | kon (human VEGFA165 [6]): 324000 M⁻¹ s⁻¹

B17: 2V15-25GS (VHH)
chain: QLQLVESGGGSVQPGGSLRLSCEVSGRTFASYTMGWFRQAPGKEREFVVAISKGGYKYDSVSLEARFTISKDNTKNTVYLQMNSLKPEDTAVYYCAGTRAYGSSRLRLAETYEYWGQGTQVTVSSGGGGSGGGSGGGSGGGSGGGSGGGSQLQLVESGGGSVQPGGSLRLSCEVSGRTFASYTMGWFRQAPGKEREFVVAISKGGYKYDSVSLEARFTISKDNTKNTVYLQMNSLKPEDTAVYYCAGTRAYGSSRLRLAETYEYWGQGTQVTVSS
notes: Tandem bivalent nanobody
EC50 (human VEGFA165 [1]): 0.24 nM | IC50 (human VEGFA165 [2]): 1.66 nM | Maximum inhibition rate (%) (human VEGFA165 [2]): 94.5%

B18: 2V30-2H-2m-NL (VHH)
chain: EVQLVESGGGLVQPGGSLRLSCAASGRTFSSYTMGWFRQAPGKEREFVVAISKGGYKYDAVSLEARFTISRDNSKNTVYLQMNSLRPEDTAVYYCAATRAYGSSRLRLAKTYEYWGQGTLVTVSSEVQLVESGGGLVQPGGSLRLSCAASGRTFSSYTMGWFRQAPGKEREFVVAISKGGYKYDAVSLEARFTISRDNSKNTVYLQMNSLRPEDTAVYYCAATRAYGSSRLRLAKTYEYWGQGTLVTVSS
notes: as for B2
EC50 (human VEGFA165 [3]): 0.81 nM

B19: 2V40-3H-2m-NL (VHH)
chain: B18 chain with D59N, D184N
notes: as for B2
EC50 (human VEGFA165 [3]): 0.26 nM

B24: 2V15-39GS (VHH)
chain: QLQLVESGGGSVQPGGSLRLSCEVSGRTFASYTMGWFRQAPGKEREFVVAISKGGYKYDSVSLEARFTISKDNTKNTVYLQMNSLKPEDTAVYYCAGTRAYGSSRLRLAETYEYWGQGTQVTVSSGGGGSGGGSGGGGSGGGGSGGGGSGGGGSGGGGSGGGGSQLQLVESGGGSVQPGGSLRLSCEVSGRTFASYTMGWFRQAPGKEREFVVAISKGGYKYDSVSLEARFTISKDNTKNTVYLQMNSLKPEDTAVYYCAGTRAYGSSRLRLAETYEYWGQGTQVTVSS
notes: Tandem bivalent nanobody
EC50 (human VEGFA165 [1]): 0.38 nM | IC50 (human VEGFA165 [2]): 1.74 nM | Maximum inhibition rate (%) (human VEGFA165 [2]): 94.5%

Other lines, results leading:

EC50 (human VEGFA165 [1]): 0.27 nM | IC50 (human VEGFA165 [2]): 1.6 nM | Maximum inhibition rate (%) (human VEGFA165 [2]): 94.1%
B1: 2V15-30GS (VHH)
chain: QLQLVESGGGSVQPGGSLRLSCEVSGRTFASYTMGWFRQAPGKEREFVVAISKGGYKYDSVSLEARFTISKDNTKNTVYLQMNSLKPEDTAVYYCAGTRAYGSSRLRLAETYEYWGQGTQVTVSSGGGGSGGGSGGGGSGGGSGGGSGGGSGGGSQLQLVESGGGSVQPGGSLRLSCEVSGRTFASYTMGWFRQAPGKEREFVVAISKGGYKYDSVSLEARFTISKDNTKNTVYLQMNSLKPEDTAVYYCAGTRAYGSSRLRLAETYEYWGQGTQVTVSS
notes: Tandem bivalent nanobody

EC50 (human VEGFA165 [3]): 1.19 nM
B4: 2V43-1H-2m-3GS (VHH)
chain: B2 chain with V24A, D110N, V152A, D238N
notes: as for B2

EC50 (human VEGFA165 [3]): 0.26 nM
B5: 2V1-SA1-3GS (VHH)
chain: B2 chain with S74A, S202A
notes: as for B2

IC50 (human VEGFA165 [4]): 3.22 nM | Maximum inhibition rate (%) (human VEGFA165 [4]): 91.2% | EC50 (human VEGFA165 [5]): 0.41 nM
B8: V15-V30 (bispecific antibody)
chain: B7 chain with S30A, A97G, D110E, A164S, E178G, S194A, G231A, E244K

IC50 (human VEGFA165 [4]): 2.84 nM | Maximum inhibition rate (%) (human VEGFA165 [4]): 91.1% | EC50 (human VEGFA165 [5]): 0.31 nM
B9: V1-V30 (bispecific antibody)
chain: B7 chain with A164S, E178G, S194A, G231A, E244K

IC50 (human VEGFA165 [4]): 4.06 nM | Maximum inhibition rate (%) (human VEGFA165 [4]): 90.1% | EC50 (human VEGFA165 [5]): 0.26 nM
B10: V15-V40 (bispecific antibody)
chain: B7 chain with S30A, A97G, D110E, A164T, D193N, S194A, G231A, E244K

IC50 (human VEGFA165 [4]): 3.32 nM | Maximum inhibition rate (%) (human VEGFA165 [4]): 89.8% | EC50 (human VEGFA165 [5]): 0.31 nM
B12: V30-V40 (bispecific antibody)
chain: B7 chain with E44G, S60A, D110K, A164T, D193N, S194A, G231A, E244K

EC50 (human VEGFA165 [7]): 0.77 nM
B14: V31 (VHH)
VHH: B13 VHH with S30A, S60A, N110K
notes: Monovalent nanobody; tag not described here, the ELISA detects a His tag

EC50 (human VEGFA165 [7]): 0.52 nM
B16: V1 (VHH)
VHH: B13 VHH with G97A, N110D
notes: as for B14

EC50 (human VEGFA165 [3]): 0.22 nM
B20: 2V13-4m-NL (VHH)
chain: B18 chain with S30T, S74A, A97G, K110D, S155T, S199A, A222G, K235D
notes: as for B2

EC50 (human VEGFA165 [3]): 0.2 nM
B21: 2V1-DP-NL (VHH)
chain: B18 chain with A24V, A60S, K110D, A149V, A185S, K235D
notes: as for B2

EC50 (human VEGFA165 [3]): 0.19 nM
B22: 2V15-4m-NL (VHH)
chain: B18 chain with S30A, A60S, S74A, A97G, K110E, S155A, A185S, S199A, A222G, K235E
notes: as for B2

EC50 (human VEGFA165 [3]): 0.28 nM
B23: 2V1-SA1-NL (VHH)
chain: B18 chain with A24V, A60S, S74A, K110D, A149V, A185S, S199A, K235D
notes: as for B2

EC50 (human VEGFA165 [3]): 0.23 nM
B25: 2V1-DP-9GS (VHH)
chain: EVQLVESGGGLVQPGGSLRLSCAVSGRTFSSYTMGWFRQAPGKEREFVVAISKGGYKYDSVSLEARFTISRDNSKNTVYLQMNSLRPEDTAVYYCAATRAYGSSRLRLADTYEYWGQGTLVTVSSGGGGSGGGSEVQLVESGGGLVQPGGSLRLSCAVSGRTFSSYTMGWFRQAPGKEREFVVAISKGGYKYDSVSLEARFTISRDNSKNTVYLQMNSLRPEDTAVYYCAATRAYGSSRLRLADTYEYWGQGTLVTVSS
notes: as for B2
